The target in the test is SNAP 25 (endogenous, rat neuronal cells) (rat) (UniProt P60881). Kind of test: cell-based or functional assay.
UniProt P60881, sequence (P60881 whole entry): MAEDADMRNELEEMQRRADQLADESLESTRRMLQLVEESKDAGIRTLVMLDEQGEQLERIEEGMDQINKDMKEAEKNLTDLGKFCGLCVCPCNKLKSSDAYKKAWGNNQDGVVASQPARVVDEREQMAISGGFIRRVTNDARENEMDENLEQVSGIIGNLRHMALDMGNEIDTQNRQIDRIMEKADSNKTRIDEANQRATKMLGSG

Turning to “wt BoNT/A (wild type botulinum neurotoxin serotype A) (from UniProt P0DPI1 2-1296)”, the intracellular SNAP 25 cleavage (concentration of wt toxin used) was found to be 0.5 nM.

For the origin of these results see patent publication US20110206616A1.
